A short description of the series: soluble on expression in E. coli; label from the status in PepcDB or PDB records.
In the case of “MFVGPSPPHTPLVNRRNINNHRPRNATVTSALPDIFLAAVSLLFLWSSPKPLVSLPPNRFSFPLNPRRRSITAMSRRSPPPPPPTQRFANPQSLSDWLESRLPSDSFAAWGVKPGTKNVHNLWLELSDGETSLADSTPPVRTVNVVTVRVIGKNGRILVEAHQELSDGSIRERFRPLSEKMKPEESPDEAVFRAIKEELGSIFNGDGDNIGQRIKILPGTYNRRVEERNSLSYPGLPARYALHSVNATVEGLPEQDFCTEEKEYEGGDSTKDSVETLAAGNAVTVKRHYWKWVSPDSIRS”, the “soluble on expression in E. coli” value is listed as “not soluble”.
Then “DKGTALLVNRSLRFGERTAEELMTPRVKIVTLSTTDTVADLIDTASRTGFSRFPVVESDLDDAVGVVHIKHAFAVPAHRRRTARLNSLAQKVPVVPSSLDGDALMERIRSDGMQVAFVVDEYGGTAGMVTMEDLIEEIVGDVR”, with “not soluble”.
Then “MRGSHHHHHHKHGQFTLRDMYEQFQNIMKMGPFSQILGMIPGFGTDFMSKGNEQESMARLKKLMTIMDSMNDQELDSTDGAKVFSKQPGRIQRVARGSGVSTRDVQELLTQYTKFAQMVKKMGGIKGLF”, with “soluble”.
Consider “MGSDKIHHHHHHMVNGRFFTTAGESPAFRGRAWGRVVTQYFGGLDACCDGDDAFDAQLSQYEIGPMRVFTIAAPAHRIVRPVAALHDHGSDFFKLILQLSGVSEIEQRGKTFRLHSGDWSLYDPRVPYSIANLTHVEQLAIQIPRKQLGGFAVPDLHTSDVREFELKGLFSLLSSFLVSLSEQLPSLPGTTGTALSETILGLIVSTLTAQRDAQGEHVALPAVLRMRVKQYIHGHLADADLSIDRIARELRCSKRYLHRIFEEEGVTIDRYIWSSRLERCKDALDNARAAKPAISEIAFSWGFSSSAHFCRSFKQRYGMTPREFVRRRAWS”, for which the “soluble on expression in E. coli” value was “not soluble”.
With “MGILDKVKNLLSQNADKVETVINKAGEFVDEQTQGNYSDAIHKLHDAASNVVGMSDQQS”, the “soluble on expression in E. coli” value is on record as “soluble”.
Turning to “MKQKIWYTYDDIHRVIKALAEKIRNADIKYDAMIAIGGGGFIPARMLRCFLEIPIYAVTTAYYDSDNEGQVTEEVKKVQWLDPVPEALRGKNVLVVDEVDDSRVTMEFCLKELLKEDFGTIGVAVLHEKIKAKAGKIPEGIPYFSGITVEDWWINYPWDALDIDEHNRLAEAGRG”, the “soluble on expression in E. coli” value is reported as “not soluble”.
As for “MSKAFDLVVIGAGSGGLEAGWNAATLYGKRVAVVDVQTSHGPPFYAALGGTCVNVGCVPKKLMVTGAQYMDHLRESAGFGWEFDGSSVKANWKKLIAAKNEAVLDINKSYEGMFNDTEGLDFFLGWGSLESKNVVVVRETADPKSAVKERLQADHILLATGSWPQMPAIPGIEHCISSNEAFYLPEPPRRVLTVGGGFISVEFAGIFNAYKPPGGKVTLCYRNNLILRGFDETIREEVTKQLTANGIEIMTNENPAKVSLNTDGSKHVTFESGKTLDVDVVMMAIGRIPRTNDLQLGNVGVKLTPKGGVQVDEFSRTNVPNIYAIGDITDRLMLTPVAINEGAALVDTVFGNKPRKTDHTRVASAVFSIPPIGTCGLIEEVAAKEFEKVAVYMSSFTPLMHNISGSKYKKFVAKIVTNHSDGTVLGVHLLGDGAPEIIQAVGVCLRLNAKISDFYNTIGVHPTSAEELCSMRTPSYYYVKGEKMEKLPDSNL”, the “soluble on expression in E. coli” value is given as “soluble”.
Then “SNTGPYYFVKNLPLHELITPEFISTFIKKGKLILSLDKDTYEETGLQGHPSQFSGRKIMKFIVSIDLMELSLNLDSKKYERISWSFKEKKPLKFDFLLAWHKTGSEESTMMSYFSKYQIQEHQPKVALSTLRDLQCPVLQSSELEGTPEVSCRALELFDWLGAVFSNVDLNNEPNNFISTYCCPEPSTVVAKAYLCTITGFILPEKICLLLEHLCHYFDEPKLAPWVTLSVQGFADSPVSWEKK”, with “soluble”.
Then “MMEGVRRAVAKFLRGGGVYEKAVDAFVKDLQRELIKADVNVKLVLNVTRRIKERALKEEPPPGVTRRDWMIKIVYEELVKLFGGDQEPQVDPPKTPWIVLLVGVQGSGKTTTAGKLAYYYVRRGYKVGLVSSDTHRPGAYEQLKRLAEEAGAMFYGEREGDPAEIARRGLEDLLSRGAEIVIVDTAGRHGHGEEARLLDEMKAIASKVRPDEVALVIDASIGQKAMGLAERFHKSTPIGSIIVTKMDGTARGGGALTAAAVTGARIKFIGTGETLGELEPFAPRRFVARILGMGDLESLLERIKSLEEAGELDRAAEDVLKGRITMRTIYRQLRAMRKLGPLGKVLQMLPGASMLASIDEGALKLGEEKMKRWMAIIESMTYEELDRPEIIDKRRMRRIAIGSGTSVDDVRELLVYYKNLKTMMKKLKRDKRLLRRLGMEL”, with “soluble”; and “SSNEHGPVKRSSQSTLERSEQQIRAASSLEELLRITHSEDWKLWRCRLRLKSFTSMDSRSASHRSTRFAATFYDIETLKVIDEEWQRTQCSPRETCVEVASELGKSTNTFFKPPCVNVFRCGGCCNEESLICMNTSTSYISKQLFEISVPLTSVPELVPVKVANHTGCKCLPTAPRHPYSIIRRSIQIPEEDRCSHSKKLCPIDMLWDSNKCKCVLQEENPLAGTEDHSHLQEPALCGPHMMFDEDRCECVCKTPCPKDLIQHPKNCSCFECKESLETCCQKHKLFHPDTCSCEDRCPFHTRPCASGKTACAKHCRFPKEKRAAQGPHSRKNP”, with “soluble”; and “MSLRCLVTGATGYVGGRLVPELLDAGHRVRCLARSPDRLRDHPWAGKAEVVRGDVTDADSVARAMEGVDVAYYLVHALGSGDDFEATDRRAARTFAERAAAAGVRRIVYLGGLTPAGVPEGELSPHLRSRTEVGRILLASGVPTTVLRAAVVIGSGSASFEMLRYLTERLPVMVTPSWVHTRIQPVAVRDVLRALVGSATMPREVSRTFDVGGPDILTYREMMERYARVAELPRRLILPVPMLSPGLSSHWVGLVTPVPAAIARPLTESLRHEVVCGENDIVRYVPPPPGYPLGFDDALRLALQRVREARVTTRWSSASVPGAPSDPLPTDPDWAGGSLYTDDRALGVDAPPDALWRVVEGIGGDHGWYSFPLAWAVRGWLDRLVGGVGLRRGRRDAARLRVGDSLDFWRVEEIVPGRLLRLRAEMRLPGLAWLEMYAETDDAGRTRYRQRALFHPHGLAGHAYWWSVSPFHAVVFGGMARNIARAAARAAEGHHHHHH”, with “not soluble”.
Then “RCPELYRGVVMLDSPVLGLADKLFIRAAKRLGFIDRITPAGRTLGRRDAFADLDAARTYFASKTLFRRFDPDCLTAYLQHGLQQDGEQLRLRFDPATEISIYRSIPHTSPLPSRQLKVPLAMVRGKHSRVIMPHHGYLARRMRDGEYLSMPGGHMFPLERPDETAQLLKSLFARWDA”, with “not soluble”.
“KNTDLVAEDSICFPIDEHTYYASKSIFQFEENGHEYLSFLDAEYSQKINIYDIKNQKLIKTILLQKEGPNGMNVLSGCHPLNLNHFIITSWNGTFSLVNDKGEIEKKFDFWEKGVNFQEFDHISFSSYSYKPAIIKDSILYFSQSFLKHPRKKSDWNKIPMFAFANLNTGKTGWSELRYPLIFNKDEDFKNVKLYDPEICYTYTGKDVVISLGQYDSIMVSSDFKHKISYNAKSRYLAHAYPHLQDGQIDLFKNIQIQGKLPHYSHLMYDKYRKVFYRFALMPDDNIKPFSNNPHQSFSIIILNKDYEIIGETKFPGNTYTHHLCFVGKKGLYISENNENNPQFDENKLVFRCFTLQDRKK”: the “soluble on expression in E. coli” value is on record as “soluble”.
With “MTIRVAINGFGRIGRNFLRCWFGRQNTDLEVVAINNTSDARTAAHLLEYDSVLGRFNADISYDENSITVNGKTMKIVCDRNPLNLPWKEWDIDLVIESTGVFVTAEGASKHIQAGAKKVLITAPGKAEGVGTYVIGVNDSEYRHEDFAVISNASCTTNCLAPVAKVLHDNFGIIKGTMTTTHSYTLDQRILDASHRDLRRARAAAVNIVPTTTGAAKAVALVIPELKGKLNGIALRVPTPNVSVVDLVVQVEKPTITEQVNEVLQKASQTTMKGIIKYSDLPLVSSDFRGTDESSIVDSSLTLVMDGDLVKVIAWYDNEWGYSQRVVDLAELAARKSGRLGLVQTLLISSQDSLPLTGGFFVAKREHPRSQDSINPSGPD”, the “soluble on expression in E. coli” value is listed as “soluble”.

Source of the values: the DeepSol protein solubility set.
